Assay results from publication PMC6448830 (2019).

T1: A. trivirgatus 2B4-Fc fusion protein (Aotus trivirgatus)
T1 chain: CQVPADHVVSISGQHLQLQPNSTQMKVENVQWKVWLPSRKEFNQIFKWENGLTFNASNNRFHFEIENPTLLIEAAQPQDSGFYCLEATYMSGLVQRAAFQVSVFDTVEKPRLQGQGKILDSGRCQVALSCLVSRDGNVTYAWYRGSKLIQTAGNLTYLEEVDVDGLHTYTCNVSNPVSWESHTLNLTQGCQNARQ

T2: human 2B4-Fc fusion protein (human, UniProt Q9BZW8 22-229)
T2 chain: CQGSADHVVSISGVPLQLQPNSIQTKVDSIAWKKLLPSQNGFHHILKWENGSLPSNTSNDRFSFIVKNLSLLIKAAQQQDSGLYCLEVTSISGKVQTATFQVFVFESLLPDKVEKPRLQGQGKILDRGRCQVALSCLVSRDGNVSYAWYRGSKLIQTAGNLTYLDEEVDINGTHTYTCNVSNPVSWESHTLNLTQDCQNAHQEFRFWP

B1: A. trivirgatus CD48-Fc fusion protein (Fc fusion)
chain: TSIQGNSVDVINAISGGNVTLNISESLPENVREITWFCTYHQKIADWDVKRLKYFDNKFKGRVRLDYQSGALYISKIQKEDANIYIMRVLKETMYEQEWKIRLQVFDPVPKPDIKIEKTAKVEDDCYLKLSCVIPDESVNYTWYGDKEPFPKEFQSGVLETTLKSQDYSRCYTCQVSNPVSSKNDTVCFS
modifications: biotin (biotinylated host CD48-Fc in the blocking ELISA)
B2: human CD48-Fc fusion protein (Fc fusion)
chain: QGHLVHMTVVSGSNVTLNISESLPENYKQLTWFYTFDQKIVEWDSRKSKYFESKFKGRVRLDPQSGALYISKVQKEDNSTYIMRVLKKTGNEQEWKIKLQVLDPVPKPVIKIEKIEDMDDNCYLKLSCVIPGESVNYTWYGDKRPFPKELQNSVLETTLMPHNYSRCYTCQVSNSVSSKNGTVCLSPPCTLARS
modifications: biotin (biotinylated hCD48-Fc in the blocking assays)

Tests used:
Assay in all cases: SPR
[1] = biological target: T1, A. trivirgatus 2B4-Fc fusion protein
[2] = biological target: T2, human 2B4-Fc fusion protein
[3] = biological target: T2, human 2B4-Fc fusion protein

Binder | koff [1] | Kd [2] | koff [3]
B1 | 0.000489 s⁻¹ | – | –
B2 | – | 23 nM | 0.0224 s⁻¹
